Laboratory results taken from patent US20130189787A1 (OPX BIOTECHNOLOGIES ,INC., priority 2008, published 2013).

Key:
[1] = test system: gram negative and gram positive bacteria; details: wide range of gram negative and gram positive bacteria; concentrations as low as; cited from earlier work
[2] = test system: E. coli; details: known to be toxic; cited from earlier work
[3] = test system: E. coli strain BW25113; details: 20 g/L 3-HP, putrescine 0.1 g/L
Procedure: The control E. coli strain BW25113 and 22 of its derivatives, each derivative having a deletion of a respective one of 22 aldehyde dehydrogenases or related genes (predicted aldehyde dehydrogenases via homology, www.ecocyc.org) were cultured as described in methods in the Common Methods Section. […] These strains each contain a kanamycin marker in place of the deleted gene.
In addition, an Eppendorf external column heater is used and the data are collected using an SRI (Torrance, Calif.) analog-to-digital converter linked to a standard desk top computer. Data are analyzed using the SRI Peak Simple software. A Coregel 64H ion exclusion column (Transgenomic, Inc., San Jose, Calif.) is employed. The column resin is a sulfonated polystyrene divinyl benzene with a particle size of 10 μm and column dimensions are 300×7.8 mm The mobile phase consisted of sulfuric acid (Fisher Scientific, Pittsburgh, Pa. USA) diluted with deionized (18 MΩcm) water to a concentration of 0.02 N and vacuum filtered through a 0.2 μm nylon filter. The flow rate of the mobile phase is 0.6 mL/min. The UV detector is operated at a wavelength of 210 nm and the column is heated to 60° C.
The next day, 250 uL of the overnight cultures were inoculated into 25 mL of M9+kanamycin. […] All the intracellular and extracellular metabolites were analyzed by HPLC as described in the Common Methods Section, Subsection III.

[4] = Enzyme activity assays for dehydrogenase enzymes with 3-HP as a substrate (340 nm spectrophotometric); format: biochemical, E. coli; details: 1 mM 3-HP, 1 mM cofactor, 1 hour at room temperature, change in absorption at 340 nm; clarified lysates or purified enzymes
Procedure: Samples of these enzymes were isolated either as clarified lysates or as purified enzymes as described in the method reported above. As these dehydrogenases use NAD+, NADH, NADP+, NADPH or all of these molecules as cofactors for their reactions depending on reaction direction, all enzymes where tested with their known cofactors. For enzymes where the specific cofactors have not been determined or maybe unclear, all possible cofactors were evaluated.
(§1) A spectrophotometric assay was used to evaluate enzyme activity. […] Replicates of reactions were carried out to compare reactions in the presence or absence or 3-HP, and with and without enzyme. Enzymatic activities were confirmed by comparing the change in the 340 nm absorption values after 1 hour incubations to reactions performed in buffer containing 1 mM cofactor as a baseline. […] Furthermore, activity of the purified aldB enzyme was confirmed with its natural substrate (1 mM […]) as in FIG. 9B.
(§2) Reactions were carried out using one of two reaction buffers. AldA, AldB, LacZ, and Usg reactions were performed in a buffer consisting of 100 mM potassium phosphate buffer pH 7.4 with 50 mM sodium chloride. Likewise, puuC reactions were performed in a buffer consisting of 200 mM sodium bicarbonate pH 9.2 with 10 mM dithiothreitol and 30 micromolar ferrous sulphate. Where stated, all cofactors were used at 1 mM in the final reaction buffer. […] After one hour incubations at room temperature, the samples were diluted 1 to 20 in water and measured with a Beckmann DU530 spectrometer set at 340 nm.

[5] = Enzyme activity assay of purified aldB with its natural substrate; format: biochemical, E. coli; details: 1 mM acetate, FIG. 9B
Procedure: as §1, §2

O=CCCO [3-HPA, 3-hydroxypropionaldehyde]
concentration toxic to bacteria [1]: ≥ 15 mM | toxicity to E. coli [2]: toxic

NCCCCN [putrescine]
level of aldehyde in response to 3-HP ([3]; 20 hours, FIG. 7): greater level | level of aldehyde in response to 3-HP in a strain lacking the puuC gene ([3]; puuC deletion strain, FIG. 8): elevated levels

B1: aldB: E. coli acetaldehyde dehydrogenase, his-tagged, over-expressed (SEQ ID NO 024) (protein, listed as Escherichia coli)
chain: MTNNPPSAQIKPGEYGFPLKLKARYDNFIGGEWVAPADGEYYQNLTPVTGQLLCEVASSGKRDIDLALDAAHKVKDKWAHTSVQDRAAILFKIADRMEQNLELLATAETWDNGKPIRETSAADVPLAIDHFRYFASCIRAQEGGISEVDSETVAYHFHEPLGVVGQIIPWNFPLLMASWKMAPALAAGNCVVLKPARLTPLSVLLLMEIVGDLLPPGVVNVVNGAGGVIGEYLATSKRIAKVAFTGSTEVGQQIMQYATQNIIPVTLELGGKSPNIFFADVMDEEDAFFDKALEGFALFAFNQGEVCTCPSRALVQESIYERFMERAIRRVESIRSGNPLDSVTQMGAQVSHGQLETILNYIDIGKKEGADVLTGGRRKLLEGELKDGYYLEPTILFGQNNMRVFQEEIFGPVLAVTTFKTMEEALELANDTQYGLGAGVWSRNGNLAYKMGRGIQAGRVWTNCYHAYPAHAAFGGYKQSGIGRETHKMMLEHYQQTKCLLVSYSDKPLGLF
modifications: His tag
enzymatic activity using 3-HP as a substrate [4]: showed activity | enzymatic activity with natural substrate [5]: confirmed

B2: aldA: E. coli aldehyde dehydrogenase A, his-tagged, over-expressed (SEQ ID NO 023) (protein, listed as Escherichia coli)
chain: MSVPVQHPMYIDGQFVTWRGDAWIDVVNPATEAVISRIPDGQAEDARKAIDAAERAQPEWEALPAIERASWLRKISAGIRERASEISALIVEEGGKIQQLAEVEVAFTADYIDYMAEWARRYEGEIIQSDRPGENILLFKRALGVTTGILPWNFPFFLIARKMAPALLTGNTIVIKPSEFTPNNAIAFAKIVDEIGLPRGVFNLVLGRGETVGQELAGNPKVAMVSMTGSVSAGEKIMATAAKNITKVCLELGGKAPAIVMDDADLELAVKAIVDSRVINSGQVCNCAERVYVQKGIYDQFVNRLGEAMQAVQFGNPAERNDIAMGPLINAAALERVEQKVARAVEEGARVAFGGKAVEGKGYYYPPTLLLDVRQEMSIMHEETFGPVLPVVAFDTLEDAISMANDSDYGLTSSIYTQNLNVAMKAIKGLKFGETYINRENFEAMQGFHAGWRKSGIGGADGKHGLHEYLQTQVVYLQS
modifications: His tag
enzymatic activity using 3-HP as a substrate [4]: showed activity

B3: puuC: E. coli γ-glutamyl-γ-aminobutyraldehyde dehydrogenase, over-expressed (SEQ ID NO 038) (protein, listed as Escherichia coli)
chain: MNFHHLAYWQDKALSLAIENRLFINGEYTAAAENETFETVDPVTQAPLAKIARGKSVDIDRAMSAARGVFERGDWSLSSPAKRKAVLNKLADLMEAHAEELALLETLDTGKPIRHSLRDDIPGAARAIRWYAEAIDKVYGEVATTSSHELAMIVREPVGVIAAIVPWNFPLLLTCWKLGPALAAGNSVILKPSEKSPLSAIRLAGLAKEAGLPDGVLNVVTGFGHEAGQALSRHNDIDAIAFTGSTRTGKQLLKDAGDSNMKRVWLEAGGKSANIVFADCPDLQQAASATAAGIFYNQGQVCIAGTRLLLEESIADEFLALLKQQAQNWQPGHPLDPATTMGTLIDCAHADSVHSFIREGESKGQLLLDGRNAGLAAAIGPTIFVDVDPNASLSREEIFGPVLVVTRFTSEEQALQLANDSQYGLGAAVWTRDLSRAHRMSRRLKAGSVFVNNYNDGDMTVPFGGYKQSGNGRDKSLHALEKFTELKTIWISLEA
enzymatic activity using 3-HP as a substrate [4]: showed activity

B4: usg: E. coli aldehyde dehydrogenase not listed in Table 1 (SEQ ID NO: 121) (protein, listed as Escherichia coli)
chain: MSEGWNIAVLGATGAVGEALLETLAERQFPVGEIYALARNESAGEQLRFGGKTITVQDAAEFDWTQAQLAFFVAGKEATAAWVEEATNSGCLVIDSSGLFALEPDVPLVVPEVNPFVLTDYRNRNVIAVPDSLTSQLLAALKPLIDQGGLSRISVTSLISASAQGKKAVDALAGQSAKLLNGIPIDEEDFFGRQLAFNMLPLLPDSEGSVREERRIVDEVRKILQDEGLMISASVVQAPVFYGHAQMVNFEALRPLAAEEARDAFVQGEDIVLSEENEFPTQVGDASGTPHLSVGCVRNDYGMPEQVQFWSVADNVRFGGALMAVKIAEKLVQEYLY
enzymatic activity using 3-HP as a substrate [4]: showed activity
